Results from patent US20220073631A1.

Experiments:
[1] = target: hIL-4Rα-ECD (wild-type hIL-4Rα extracellular domain with C-terminus his-tag) (human) (UniProt P24394); assay: SPR, Biacore T200, by the methods of Example 2; mean of three experiments
[2] = target: human IL-4Rα (Shanghai Novoprotein Technology Co., Ltd) (human) (UniProt P24394); assay: SPR, Biacore T200, antibody captured on protein A, antigen as analyte, 25 C, 1:1 model

Kd [1]: 58.8 pM
koff [1]: 4.29e-05 s⁻¹
kon [1]: 707000 M⁻¹ s⁻¹
Kd [2]: 136 pM
koff [2]: 0.00011 s⁻¹
kon [2]: 808000 M⁻¹ s⁻¹
B1: Dupilumab (antibody, INN chains, looked up, V domains shown)
VH: EVQLVESGGGLEQPGGSLRLSCAGSGFTFRDYAMTWVRQAPGKGLEWVSSISGSGGNTYYADSVKGRFTISRDNSKNTLYLQMNSLRAEDTAVYYCAKDRLSITIRPRYYGLDVWGQGTTVTVSS
VL: DIVMTQSPLSLPVTPGEPASISCRSSQSLLYSIGYNYLDWYLQKSGQSPQLLIYLGSNRASGVPDRFSGSGSGTDFTLKISRVEAEDVGFYYCMQALQTPYTFGQGTKLEIKR
